These are literature values, as cited in article PMC4599565.

Usually Kd stands for a measure of binding affinity in units of concentration.

The series concerns the target VWF (Homo sapiens) (UniProt P04275).

For the substance ADAMTS13 (from UniProt Q76LX8), the Kd was 20 nM.
